Test results from patent publication US20210386836.

Tests used:
[1] = biological target: T1, C1s, P09871
T1 chain: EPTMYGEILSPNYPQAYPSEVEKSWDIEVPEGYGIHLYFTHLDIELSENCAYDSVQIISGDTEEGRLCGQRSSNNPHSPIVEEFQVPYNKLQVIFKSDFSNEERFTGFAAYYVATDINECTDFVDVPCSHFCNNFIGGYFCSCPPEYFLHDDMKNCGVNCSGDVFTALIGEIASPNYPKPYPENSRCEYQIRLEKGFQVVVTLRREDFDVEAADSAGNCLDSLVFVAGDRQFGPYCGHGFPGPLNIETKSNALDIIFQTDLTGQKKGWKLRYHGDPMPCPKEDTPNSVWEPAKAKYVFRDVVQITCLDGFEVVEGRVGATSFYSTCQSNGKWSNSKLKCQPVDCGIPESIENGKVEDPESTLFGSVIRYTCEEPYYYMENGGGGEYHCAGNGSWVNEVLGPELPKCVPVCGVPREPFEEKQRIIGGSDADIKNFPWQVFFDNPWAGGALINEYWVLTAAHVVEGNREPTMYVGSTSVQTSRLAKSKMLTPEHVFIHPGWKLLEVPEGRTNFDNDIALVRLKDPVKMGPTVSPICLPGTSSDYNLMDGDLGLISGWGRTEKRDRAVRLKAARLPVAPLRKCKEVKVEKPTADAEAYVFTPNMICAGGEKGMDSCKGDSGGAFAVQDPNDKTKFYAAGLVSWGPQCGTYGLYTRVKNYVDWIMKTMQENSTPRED

[2] = biological target: T2, C2, P06681
T2 chain: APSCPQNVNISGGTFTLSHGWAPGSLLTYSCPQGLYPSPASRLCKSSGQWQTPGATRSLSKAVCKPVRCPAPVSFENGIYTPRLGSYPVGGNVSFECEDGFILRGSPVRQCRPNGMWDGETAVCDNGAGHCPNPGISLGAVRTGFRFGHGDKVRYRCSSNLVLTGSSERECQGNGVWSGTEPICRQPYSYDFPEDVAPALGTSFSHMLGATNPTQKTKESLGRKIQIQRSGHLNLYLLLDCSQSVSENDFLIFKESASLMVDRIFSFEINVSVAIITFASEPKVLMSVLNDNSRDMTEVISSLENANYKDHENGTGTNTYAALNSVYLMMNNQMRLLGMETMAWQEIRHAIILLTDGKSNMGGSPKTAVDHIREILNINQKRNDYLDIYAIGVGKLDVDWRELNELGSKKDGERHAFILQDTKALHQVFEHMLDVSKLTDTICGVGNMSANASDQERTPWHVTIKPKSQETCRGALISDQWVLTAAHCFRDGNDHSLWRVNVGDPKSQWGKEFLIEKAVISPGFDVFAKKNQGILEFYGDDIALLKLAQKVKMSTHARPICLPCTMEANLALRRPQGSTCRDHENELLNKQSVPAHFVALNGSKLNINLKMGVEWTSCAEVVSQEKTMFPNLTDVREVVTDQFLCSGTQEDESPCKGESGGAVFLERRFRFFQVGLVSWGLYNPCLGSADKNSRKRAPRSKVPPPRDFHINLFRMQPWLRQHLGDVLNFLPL

[3] = biological target: C5, P01031
[4] = biological target: T3, Factor H, P08603
T3 chain: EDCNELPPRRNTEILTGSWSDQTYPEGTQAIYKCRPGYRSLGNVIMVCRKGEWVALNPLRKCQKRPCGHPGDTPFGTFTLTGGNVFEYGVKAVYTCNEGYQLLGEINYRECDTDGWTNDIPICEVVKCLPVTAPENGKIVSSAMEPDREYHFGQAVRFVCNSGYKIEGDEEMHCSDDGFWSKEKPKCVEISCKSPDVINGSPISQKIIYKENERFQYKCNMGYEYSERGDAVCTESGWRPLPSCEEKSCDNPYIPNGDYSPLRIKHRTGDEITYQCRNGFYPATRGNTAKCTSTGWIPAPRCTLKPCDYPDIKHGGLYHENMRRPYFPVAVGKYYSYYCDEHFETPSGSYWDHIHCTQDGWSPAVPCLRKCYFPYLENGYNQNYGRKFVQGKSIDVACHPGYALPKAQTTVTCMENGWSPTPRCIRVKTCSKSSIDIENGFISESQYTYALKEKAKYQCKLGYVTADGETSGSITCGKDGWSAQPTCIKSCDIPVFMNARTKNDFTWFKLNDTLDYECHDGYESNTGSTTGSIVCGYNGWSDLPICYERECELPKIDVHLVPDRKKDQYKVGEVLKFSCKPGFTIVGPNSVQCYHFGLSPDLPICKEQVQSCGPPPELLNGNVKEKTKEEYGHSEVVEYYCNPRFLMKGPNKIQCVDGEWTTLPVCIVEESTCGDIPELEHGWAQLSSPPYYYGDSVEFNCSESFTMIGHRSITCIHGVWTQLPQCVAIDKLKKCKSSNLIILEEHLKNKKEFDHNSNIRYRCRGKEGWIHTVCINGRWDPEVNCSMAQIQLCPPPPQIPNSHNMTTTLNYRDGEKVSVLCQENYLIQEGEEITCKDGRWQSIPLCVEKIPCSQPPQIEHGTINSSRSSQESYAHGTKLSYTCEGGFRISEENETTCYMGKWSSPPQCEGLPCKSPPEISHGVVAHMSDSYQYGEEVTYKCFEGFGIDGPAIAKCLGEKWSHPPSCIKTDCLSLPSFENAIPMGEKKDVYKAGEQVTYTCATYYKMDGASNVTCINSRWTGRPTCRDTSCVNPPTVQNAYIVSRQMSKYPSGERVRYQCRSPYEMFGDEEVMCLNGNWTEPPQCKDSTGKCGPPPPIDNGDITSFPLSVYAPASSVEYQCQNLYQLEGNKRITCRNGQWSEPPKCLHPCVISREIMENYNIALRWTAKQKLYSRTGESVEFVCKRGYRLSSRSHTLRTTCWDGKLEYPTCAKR

[5] = biological target: IL-1β
[6] = biological target: IL-3
[7] = biological target: IL-8
[8] = biological target: IP-10

B1: PrtI(ProB) (protein)
chain: AIGETSVQNVKVSVAKNESDSQKFNNSQNLEQKTPQAAAANQNGSQVQNDHTETQLQNQQTTQSQVTQAHTEENNASSIPEPANQADHVKGNVQSAWDQGYKGQNTVVAVIDSGADTSHKDFQTMPSNPKLKQEDVQSKIDQQGYGKYVNEKFPYVYNYADRDNDYIKSDDNNQXNDSPHGQHVSGIIAADGHPEGDQQYVVGVAPEAQLMQLRVFGQFSDEKTDDVARAIYDATNLGADVIQMSLGQGVADQQLTNIEQKAVQYAIDHGVFVSISASNNGNSASVDNPSKVTAKGYGSGSEAGNYEPLNSGTVANPGASKNALTVAAETSGTGKDSDMASFSSWGPLSDFSLKPDLSAPGYQVVSTVNDNQYQTMSGTSMAGPFAAGSAALVIQRLKQTNPELKGAELVAATKALLMNSAKVQTQNGYTTPVSPRRQGAGQIDVGAATANPVYVTAADGTSSLSLRQVDEKTTFTLTFHNLTDQEQSYSFNDLGGGYTEQRDPDSGVFHEVQLAGAHVNGVGNFTLAPKEVKDLQYTLDLQGLNKNQPVEGWLHFTNDKDKSTVVVPYLAYYGDLTSENVFDQNANEEKPDIQGNRFVNENNYPLGVTDQESLKQLVNVDSDYNWQEVAKLYESGKVAFSPNDDHQSDLIKPYAYLKQNVKDLKVEILDAKGNVVRVVSDVQGVDKSYDESGVTKDASLSVSMRDNPDAFEWDGKVYDTKTGQMVTAPDGQYTYRFVATLWNEGPNQKQTADFPVVVDTQAPSLSVKYDSATHTLSGNYEDKGAGFTDYSYVTVQVNDKVFGYKLNEGESGFDNSEKTKGHFNFTLSSDALDALSGSLNKVSVTLSDVANNTTVKTVDVPAVKDQPAVSVWNATEGVEFNKNSKDYNKENDTYTLYGSAAQDFYLNGALVQVRDGKYEVPVKTTTQDLVFSTDQAGKNVLKSFTTFTPKAFFNWQNVDGFDGNFGVNIYSVKTNDPNNAVVQAAVPLGKNVKAYAQDYFTGEVYKGQVENGVATFHVHTSINQGEDGIFKRALLTGWSEVDGPAYNDKQVTSKAGVASSNHLGVYYTTDKVNRKVYTDRADLGVDVQDEAADLSSFGPTAYPGHALADLTTRTDPNPAIHFDYLNDNDTTRFGQNAVTDGYYDSVTKKFTVTGHVDPEVKSLTVLGDSSDENAPQNQVKLGKDGKFSFSFTTENVGQRPVAYIYTDQNGQKVRGTLNVVLDTVAPTLNVDQVNGNELEVKTNNPLFKLSGVVNDNLDGYRLYVNGNNIYREFLNSGYNKLAGLNTDGTDVNPYGPHNFEESFNLNDDNNQPTTHVFTIYVVDQVGNKVEKKIAVNYDPDYVA
modifications: not fully specified; X: residue not identified in the source
proteolytic activity (SDS-PAGE) [1]: None of the complement proteins tested show evidence of breakdown
proteolytic activity (SDS-PAGE) [2]: None of the complement proteins tested show evidence of breakdown
proteolytic activity (SDS-PAGE) [3]: None of the complement proteins tested show evidence of breakdown
proteolytic activity (SDS-PAGE) [4]: None of the complement proteins tested show evidence of breakdown
protein cleavage assay (SDS-PAGE) [5]: has activities against
protein cleavage assay (SDS-PAGE) [6]: has activities against
protein cleavage assay (SDS-PAGE) [7]: has activities against
protein cleavage assay (SDS-PAGE) [8]: has activities against

B2: PrtV(Pro-B) (protein)
chain: DTVNGSESVKTEATQASGSSVQDNATAKTTVTTNSNSSNNVSNVQTDTVKEAATSNVDSVASQNQATTAQQAKTTADTADQTVPPTTYKDHVKGNVQTAWDNGYKGQGMVVAVIDSGADTNHKDFSKAPESPAISKEDADKKISELGYGKYASEKFPFVYNYASRDNNWVKDDGPDASEHGQHVAGIIGADGQPNGNERYAVGVAPETQLMMMRVFNDQFADENTDDIAQAIYDAVKLGANVIQMSLGQGVAAANLNDVEQKAVEYATQHGVFVSISASNNGNSASVTGEEVPYKPGGADGNFEPFSSSTVANPGASRNAMTVAAENSVVGAGDDMADFSSWGPLQDFTLKPDVSAPGVSVTSTGNDNRYNTMSGTSMAGPFNAGVAALVMQRLKATTNLNGADLVQATKALIMNTAKPMTQQGYDTPVSPRRQGAGEIDAGAATESPVYVVAADGTSSVSLRKVGDSTQFALTFKNLSDKDQTYTFDDFGGGLTEVRDADTGTFHDVYLAGAHVYGNKTVTVKAGQSATYNFTLSLTGLKENQLVEGWLRFVGNDGQNQLVVPYLAYYGDMTSEDVFDKAANQEGTVYGGNYFVNEDNYPRGVADEDSLKALVNLEGNYNWQQVAKLYQDGKVAFSPNADGKSDLLKPYAFVKQNLKDLKVEVLDKSGKVVRVVADEQGLDKSYYESGVNKDVTLSVSMRNNPNTLAWDGKVYDDKAGEMVNAADGEYTYRYVATLYNDGVNKVQTADYPVVIDTTAPVLSNVKYDAATHTLSFDYKDTGSGFTDYSYAVVKVNDKTFGYKLNDGKNSKFLDAAKTSGTFKAVLGSDTLAALTAAKNALSVAVSDVADNTSTVTLLVNGNNDATTKVSVWNATNGLELDQSSPDYQAATSTYNLRGNATSDFYYNGALVQVDNSGNFVVPVSTSDTAVVFTSDAAGKNVVYKLNTATPKAVFAWQVNNTVKENFGIVLDTVVSNNKDDVVVQAAVTKGDNVEAYARDYFTGAVYKADVKDGLATFHVKVTNNSGRTVLLGWTEVVGPTFNDVQRTSANGVYLGVDTDTENPTPAPAFTSADQLGTNVVQEKADSATIGNPGDLPGHSLKDLTTRADANPDIHFDYLKDNDYNWVGAQAVKDGVYNPSTQVFTLTGKVDPNVKSLVVLGDSYNEDDPVNKVNLNSDGTFSFQFHTAPTSQRPVAYIYTKDDGSTTRGTMELILDTVLPTLSLNNVANLQLDSNGDYQVYTNNKDFSVSGEATDNLDGYRFFFNGDNDYREFHNSGVNFVAEAHQDGSTVTNPYPAYKFSKTFNLADATGETTHVYTLSVVDLTGNTVTRKFYVHY
proteolytic activity (SDS-PAGE) [1]: None of the complement proteins tested show evidence of breakdown
proteolytic activity (SDS-PAGE) [2]: None of the complement proteins tested show evidence of breakdown
proteolytic activity (SDS-PAGE) [3]: None of the complement proteins tested show evidence of breakdown
proteolytic activity (SDS-PAGE) [4]: None of the complement proteins tested show evidence of breakdown
protein cleavage assay (SDS-PAGE) [5]: has activities against
protein cleavage assay (SDS-PAGE) [6]: has activities against
protein cleavage assay (SDS-PAGE) [7]: has activities against
protein cleavage assay (SDS-PAGE) [8]: has activities against
